Several values for one entry are separate records, joined by “and”; a condition that tells them apart may be missing. Equal values may be shown once.
Legend:
human monocytes [1] = experiment: Calcium flux in human monocytes; format: cell-based
Protocol: (§1) Ca^2+ mobilization responses were performed using the intracellular ratiometric fluorescent dye, lndo-1. Cells were loaded with Indo-1/AM (3 μM; Molecular Probes, Eugene, Oreg.) in culture medium (45 min, 20° C., 10^7 cells/ml). After dye loading, cells were washed once with 10 ml PBS) and resuspended at 10^6 cell/ml in HBSS containing 1% FBS. Cytosolic [Ca^2+] release was determined using excitation at 350 nm using a Photon Technology International fluorimeter (excitation at 350 nm, ratioed dual emission at 400 and 490 nm).
(§2) The human recombinant chemokines, leukotactin, MlP-1α, three known CKβ8 variants CKβ8(1-99), CKβ8(25-99), CKβ8-1(1-116) and a novel NH2-terminal truncated form of CKβ8-1, CKβ8-1 (25-116) were obtained from R&D Systems (Minneapolis, Minn.). Human monocytes were generated from buffy coats (Stanford Blood Center, Palo Alto, Calif.) following a standard protocol. Briefly, PBMC were isolated by standard density gradient centrifugation (Ficoll-Paque-Plus, Pharmacia). Monocytes were purified using CD14 Microbeads (Miltenyi, Auburn, Calif.) magnetic positive selection. Human neutrophils were isolated from fresh peripheral blood from healthy individuals by gradient centrifugation on Ficoll-Hypaque (Hyclone, Calif.).
The activity of the CCL23 variants was tested on freshly prepared human monocytes and neutrophils using the calcium flux test described in Example 1.
(§3) Human monocytes were either generated from buffy coats (Stanford Blood Center, Palo Also, Calif.) or from fresh blood of healthy individuals following a standard protocol. Briefly, PBMC were isolated by a Ficoll-Paque gradient centrifugation (Ficoll-Paque-Plus, Pharmacia). Monocytes were purified by CD14 Microbeads (Miltenyi) magnetic positive selection. Human neutrophils were isolated from fresh blood by dextran sedimentation and gradient centrifugation Ficoll-Paque gradient centrifugation. All cells were washed and resuspended (1×10^7/ml) in RPMI medium with 10% FBS.
as §1, with “an” for “the”, “Indo-1.” for “lndo-1.”, “Probes (Eugene, Oreg.))” for “Probes, Eugene, Oreg.)”, “cells/mi).” for “cells/ml).”, “(10” for “with 10”

human neutrophils [2] = experiment: Calcium flux in human neutrophils; format: cell-based; conditions: human neutrophils
Protocol: as §1, §2, §3
as §1, with “an” for “the”, “Indo-1.” for “lndo-1.”, “Probes (Eugene, Oreg.))” for “Probes, Eugene, Oreg.)”, “cells/mi).” for “cells/ml).”, “(10” for “with 10”

mature Dendritic Cells = experiment: Calcium mobilization, mature dendritic cells; format: cell-based, human
Protocol: (§4) Human recombinant CKβ8-1(25-116) chemokine was obtained from R&D Systems (Minneapolis, Minn.). The peptide SHAAGtides SEQ ID NO:1 and SEQ ID NO:6 and a control protein (the reverse sequence of SEQ ID NO:1) were synthesized and HPLC-purified using routine techniques as described in Sambrook et al., 1989, and Ausubel et al., 1999.
(§5) Immature DCs were derived by culturing CD14+ monocytes in the presence of GM-CSF and IL4. Briefly, monocytes were cultured in a T-175 flask at 10^6 cells/ml in RPMI/10% FCS. Recombinant human GM-CSF and IL4 were added on day 0, 2, 4 and 6 to a final concentration of 1000 u/ml and 500 u/ml, respectively. Cells were harvested on day 7 as immature DCs and characterized for surface protein expression by FACS analysis. DC maturation was carried out by culturing day 6 immature DCs in macrophage-conditioned medium (MCM). Briefly, day 6 immature DCs were harvested by centrifugation and resuspended in MCM at 10^6 cells/ml. The medium was supplemented with 1000 u/ml of GM-CSF and 500 u/ml IL4. After three more days of culture, cells were harvested as mature DCs and characterized by surface protein expression flow cytometry.
MCM was prepared as follows: PBMCs isolated from buffy coat were incubated at 37° C. in a plastic flask pre-coated with 10 mg/ml human IgG (Sigma, St Louis, Mo.) for 30 minutes. After 30 minutes, non-adherent cells were removed and adherent cells were washed three times with DPBS, then cultured in RPMI/10% human serum. Conditioned-medium was collected after 24 hours. TNF-α concentration, which is critical for DC maturation, was determined by using a TNF-α ELISA kit (R&D Systems, Minn.). The final TNF-α level in MCM was adjusted to 50 u/mi by mixing with RPMI/10% human serum, and was stored at −80 freezer until use.
as §1, with “an” for “the”, “Indo-1.” for “lndo-1.”, “Probes (Eugene, Oreg.))” for “Probes, Eugene, Oreg.)”, “cells/mi).” for “cells/ml).”, “(10” for “with 10”

immature Dendritic Cells = experiment: Calcium mobilization, immature dendritic cells; format: cell-based, human
Protocol: as §4, §5
as §1, with “an” for “the”, “Indo-1.” for “lndo-1.”, “Probes (Eugene, Oreg.))” for “Probes, Eugene, Oreg.)”, “cells/mi).” for “cells/ml).”, “(10” for “with 10”

monocytes [3] = experiment: Cross-desensitization with leukotactin, monocytes; format: cell-based, human
Protocol: (§6) In cross-desensitization tests tests, cells were stimulated sequentially with leukotactin and then the chemokines CKβ8(1-99), CKβ8(25-99), CKβ8-1(1-116), and CKβ8-1(25-116). On HEK293-CCR1 transfectants (prepared as in Example 1), leukotactin induced similar patterns of receptor desensitization to all variants.
(§7) Similar receptor cross-desensitization tests were performed using both monocytes and neutrophils (prepared as in Example 2).

neutrophils [4] = experiment: Cross-desensitization with leukotactin, neutrophils; format: cell-based, human
Protocol: as §6, §7

monocytes [5] = experiment: 125I-MIP-1α binding competition, monocytes; parameters: species or system human; conditions: Monocytes
Protocol: The binding characteristics of CCL23 variants was compared in human CCR1 expressing cells. The ability of MIP-1α and the CCL23 variants CKβ8(1-99), CKβ8(25-99), CKβ8-1(1-116) and CKβ8-1(25-116) to compete with ^125I-MIP-1α binding was investigated in HEK293-CCR1 cells (prepared as in Example 1). The cells were incubated with ^125I-labeled MIP-1α (final conc. {dot over (˜)}0.05 nM) in the presence of unlabeled chemokine (3 hours at 4° C.: 25 mM HEPES, 140 mM NaCl, 1 mM CaCl2, 5 mM MgCl2 and 0.2% BSA, adjusted to pH 7.1). Reactions mixtures were aspirated onto PEI-treated GF/B glass filters using a cell harvester (Packard). The filters were washed twice (25 mM HEPES, 500 mM NaCl, 1 mM CaCl2, 5 mM MgCl2, adjusted to pH 7.1). Scintillant (MicroScint-10; 35 μl) was added to dried filters and the filiters counted in a Packard Topcount scintillation counter. Data were analyzed and plotted using Prism software (GraphPad Software, San Diego, Calif.).
(§8) Simiar binding competition tests were conducted on monocytes and neutrophils. These cells were prepared as in Example 2.

human monocytes [6] = experiment: Migration assay (ChemoTx), human monocytes; format: cell-based; conditions: 90 min, 1-100 nM
Protocol: (§9) Migration assays were performed on monocytes and neutrophils. Human monocytes and neutrophils (prepared as in Exampe 2) were harvested and resuspended in chemotaxis medium (CM). The CM consisted of Hank's buffered salt solution (Gibco, Mass.) containing CaCl2 (1 mM) and MgSO4 (1 mM) with added 0.1% BSA (Sigma, St. Louis, Mo.). The assays were performed in 96-well ChemoTx® microplates (Neuroprobe, Mass.). Leukotactin, MlP-1α and chemokines (CKβ8(1-99), CKβ8(25-99), CKβ8-1(1-116) or CKβ8-1(25-116), prepared as in Example 1) were added to the lower wells (final volume 29 μL), and 20 μL of cell suspension (5×10^6 cells/mL for monocytes; 2.5×10^6 cells/mL for neutrophils) added to the polycarbonate filters (5 μm pore size for monocytes; 3 μm pore size for neutrophils). After incubation for 90 min (37° C., 100% humidity, 5% CO2), cells were removed from the upper surface of the filter by scraping. Cells that migrated into the lower chamber were quantified using the Quant cell proliferation assay kit (Molecular Probes, Oreg.).
The chemotactic activity on human monocytes and neutrophils of chemokines: CKβ8(1-99), CKβ8(25-99), CKβ8(1-116) and CKβ8(25-116); W peptides 1 and 2 and the SHAAGtide sequences SEQ ID NO:1 and SEQ ID NO:2 was determined in migration assays. The above peptides were prepared as in previous examples. The migration assays were performed in 96-well CHEMOTX® microplates (Neuroprobe) using the protocol described in Example 5.

human neutrophils [7] = experiment: Migration assay (ChemoTx), human neutrophils; format: cell-based; conditions: 90 min, 100 nM
Protocol: as §9, with “Leukotactin, MlP-1α and chemokines (CKβ8(1-99), CKβ8(25-99), CKβ8-1(1-116) or CKβ8-1(25-116), prepared as in Example 1) were added to the lower wells (final volume 29 μL), and 20 μL of cell suspension (5×10^6 cells/mL for monocytes; 2.5×10^6 cells/mL for neutrophils) added to the polycarbonate filters (5 μm pore size for monocytes; 3 μm pore size for neutrophils).” left out
The above peptides were prepared as in previous examples.

neutrophils [8] = experiment: MIP-1α binding, neutrophils; parameters: species or system human
Protocol: as §8

CCR1 = target: T1, CCR1 (Homo sapiens, UniProt P32246); experiment: 125I-MIP-1α binding competition, HEK293-CCR1 cells; conditions: HEK293-CCR1, 3 hours at 4° C.
T1 construct: full length cDNA encoding CCR1 was cloned by the polymerase chain reaction (PCR) from genomic DNA isolated from human peripheral blood cells; expressed in transfected cells; pcDNA3.1 vector)
T1 sequence (P32246 1-355): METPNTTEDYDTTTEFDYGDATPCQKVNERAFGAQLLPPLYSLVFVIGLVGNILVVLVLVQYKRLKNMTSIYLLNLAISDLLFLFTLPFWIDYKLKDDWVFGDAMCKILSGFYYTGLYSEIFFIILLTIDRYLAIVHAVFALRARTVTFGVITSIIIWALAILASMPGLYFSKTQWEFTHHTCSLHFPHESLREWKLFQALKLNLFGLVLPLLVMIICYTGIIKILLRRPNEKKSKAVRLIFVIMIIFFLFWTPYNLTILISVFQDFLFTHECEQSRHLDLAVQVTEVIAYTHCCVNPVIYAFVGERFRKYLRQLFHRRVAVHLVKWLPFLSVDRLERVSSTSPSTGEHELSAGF
Protocol: The binding characteristics of CCL23 variants was compared in human CCR1 expressing cells. […] Reactions mixtures were aspirated onto PEI-treated GF/B glass filters using a cell harvester (Packard). The filters were washed twice (25 mM HEPES, 500 mM NaCl, 1 mM CaCl2, 5 mM MgCl2, adjusted to pH 7.1). Scintillant (MicroScint-10; 35 μl) was added to dried filters and the filiters counted in a Packard Topcount scintillation counter. Data were analyzed and plotted using Prism software (GraphPad Software, San Diego, Calif.).

Molecule: Gly Ala Ala His Ser Leu Thr Met Gin Pro Gly lie Lys Arg Arg Trp Leu Met (GAAHSLTMQPGIKRRWLM) [Control peptide (SEQ ID NO: 33), reference compound]
- calcium flux (human monocytes [1]; human monocytes, Example 8): No significant calcium flux
- calcium flux (human neutrophils [2]; Example 8): No significant calcium flux
- calcium flux (mature Dendritic Cells): No significant calcium flux
- calcium flux (immature Dendritic Cells): No significant calcium flux

B1: CKβ8(1-99): known CKβ8 (CCL23) variant, human recombinant chemokine from R&D Systems (protein, listed as Homo sapiens)
chain: RVTKDAETEFMMSKLPLENPVLLDRFHATSADCCISYTPRSIPCSLLESYFETNSECSKPGVIFLTKKGRRFCANPSDKQVQVCMRMLKLDTRIKTRKN
- desensitization by leukotactin prestimulation (monocytes [3]): completely desensitized
- desensitization by leukotactin prestimulation (neutrophils [4]): inactive
- calcium release (human monocytes [1]; freshly prepared human monocytes, up to 250 nM): poor activity
- IC50 (monocytes [5]): 10 nM and 10.3 nM
- calcium flux (human neutrophils [2]; 100 nM): neither MlP-1α nor CKβ8(1-99), CKβ8(25-99) or CKβ8(1-116) induced a calcium flux
- migration of monocytes (human monocytes [6]): moderate activity

B2: MIP-1α: macrophage inflammatory protein, human recombinant chemokine, CCR1 ligand (protein, listed as Homo sapiens)
chain: SLAADTPTACCFSYTSRQIPQNFIADYFETSSQCSKPGVIFLTKRSRQVCADPSEEWVQKYVSDLE
- migration of neutrophils (human neutrophils [7]): none of the known CCR1 ligands including leukotactin and MlP-1α was active
- MIP-1α binding to neutrophils (neutrophils [8]): does not bind neutrophils
- IC50 (monocytes [5]): 0.27 nM
- IC50 (CCR1): 0.54 nM
- calcium flux (human neutrophils [2]; 100 nM): neither MlP-1α nor CKβ8(1-99), CKβ8(25-99) or CKβ8(1-116) induced a calcium flux

B3: leukotactin: human recombinant chemokine, CCR1 agonist (protein, listed as Homo sapiens)
chain: SFHFAADCCTSYISQSIPCSLMKSYFETSSECSKPGVIFLTKKGRQVCAKPSGPGVQDCMKKLKPYSI
- migration of neutrophils (human neutrophils [7]): none of the known CCR1 ligands including leukotactin and MlP-1α was active
- calcium flux (human neutrophils [2]; 100 nM): induced a calcium flux
